Drawing on paper PMC4558368, this text covers Kd for two substances.

For this assay, the target named is Extracellular region of FcγRIIIa (residues 19-193, V158 allotype) (UniProt P08637). Put plainly: SPR.

“Human IgG1 Fc D265A (glycosylated variant) (domain or fragment)”: the Kd is > 50 µM. The same measure for “Human IgG1 Fc T299A (aglycosylated variant) (domain or fragment)”: > 50 µM.
